In PMC8481289, “Structural basis for UFM1 transfer from UBA5 to UFC1” (Nature Communications, 2021) one finds binding result and Kd data, which are given here for five molecules.

B2: UFC1 (WT) (enzyme, human)
chain: MADEATRRVVSEIPVLKTNAGPRDRELWVQRLKEEYQSLIRYVENNKNADNDWFRLESNKEGTRWFGKCWYIHDLLKYEFDIEFDIPITYPTTAPEIAVPELDGKTAKMYRGGKICLTDHFKPLWARNVPKFGLAHLMALGLGPWLAVEIPDLIQKGVIQHKEKCNQ
notes: UFC1, the E2 of UFM1; active site C116; 15N-labelled (M9 medium with 15NH4Cl) for the NMR titrations; In the two crystal structures UFC1 stood as part of a fusion chain; also called E2

What all share (details): both partners purified
Assay [1] deals with B2. Description: crystal structure; UBA5(347-404) fused to the N-terminus of UFC1; 2.65 Å; the UBS binds the UFC1 of a molecule of another asymmetric unit; 2% tacsimate pH 7.0, 20% PEG 3350, 0.1 M HEPES pH 7.5, 6 mM zinc sulfate, 20 °C.
A further assay addresses T1, UBA5 Y372A (human, UniProt Q9GZZ9 1-404, Y372A).
T1 construct: UBA5, human, point mutant in the linker between UIS and UBS
In words: ITC; UFC1 titrated into the UBA5 construct (heat per mole of UFC1); MicroCal PEAQ ITC, 25 °C; 20 mM Tris pH 7.5, 50 mM NaCl, 2 mM DTT; 19 injections of 2 μl; fitted to the two sets of sites model.

Assay [2] concerns the target T2, UBA5 double mutant C250A and A371C (human, UniProt Q9GZZ9 1-404, C250A | A371C).
T2 construct: UBA5, human, active site Cys removed and a Cys placed in the linker
In words: cross-linking; disulfide trapping: DPDS-activated UFC1-NC (4 μM) mixed with 2 μM UBA5 (WT or mutants) in PBS, 25 °C, 20 min; non-reducing SDS-PAGE, Coomassie.

The target in another assay is T3, UBA5 WT (human, UniProt Q9GZZ9 1-404).
T3 construct: UBA5, human; active site C250; also called E1
Described as above.

Assay [3] concerns the target B2. In words: ITC; UFC1 titrated into the UBA5 construct (heat per mole of UFC1); MicroCal PEAQ ITC, 25 °C; 20 mM Tris pH 7.5, 50 mM NaCl, 2 mM DTT; 19 injections of 2 μl; fitted to the two sets of sites model.
The target of assay [4] is B2. In words: crystal structure; UBA5(389-404) fused to the C-terminus of UFC1; 2.4 Å; the UBS binds the UFC1 of a fusion molecule of another asymmetric unit; 35 mM citric acid, 65 mM bis-tris propane, 19% PEG3350, 100 mM LiCl, 20 °C.

B1: UBA5(347–404) (domain or fragment, human, UniProt Q9GZZ9 347-404, looked up)
chain: SEVSEEELKNFSGPVPDLPEGITVAYTIPKKQEDSVTELTVEDSGESLEDLMAKMKNM
notes: In the crystal structure 7NVK the same stretch stood fused to the N-terminus of UFC1
With B1, the binding result with UFC1 (WT) [1] is “binds”.
On to B2, for which the binding result in the assay with UBA5 Y372A is given as “binds”.

B3: UFC1-NC (enzyme, human)
chain: MADEATRRVVSEIPVLKTNAGPRDRELWVQRLKEEYQSLIRYVENNKNADNDWFRLESNKEGTRWFGKSWYIHDLLKYEFDIEFDIPITYPTTAPEIAVPELDGKTAKMYRGGKICLTDHFKPLWARNVPKFGLAHLMALGLGPWLAVEIPDLIQKGVIQHKEKSNQ
modifications: activated with the crosslinker 2,2' dithiodipyridyldisulfide (DPDS); only the active site C116 is left
notes: UFC1 with C69 and C165 mutated to serine, leaving only the active site C116
For the molecule B3, the binding result (in assay [2]; with UBA5 WT) was “binds” each time.

B4: UBA5(Δ349-389) (enzyme, human)
chain: MAESVERLQQRVQELERELAQERSLQVPRSGDGGGGRVRIEKMSSEVVDSNPYSRLMALKRMGIVSDYEKIRTFAVAIVGVGGVGSVTAEMLTRCGIGKLLLFDYDKVELANMNRLFFQPHQAGLSKVQAAEHTLRNINPDVLFEVHNYNITTVENFQHFMDRISNGGLEEGKPVDLVLSCVDNFEARMTINTACNELGQTWMESGVSENAVSGHIQLIIPGESACFACAPPLVVAANIDEKTLKREGVCAASLPTTMGVVAGILVQNVLKFLLNFGTVSFYLGYNAMQDFFPTMSMKPNPQCDDRNCRKQQEEYKKKVAALPKQEVIQEEEEIIHEDNEWGIELVSEGSGSGESLEDLMAKMKNM
notes: UBA5, human, up to residue 348; UBA5, human, from residue 390 to the C-terminus (holds the UBS); Linker between UIS and UBS removed, UBS kept
Molecule B4 displayed a Kd with UFC1 (WT) [3] of 5.5 µM.

B5: UBA5 (389-404) (domain or fragment, human, UniProt Q9GZZ9 389-404, looked up)
chain: DSGESLEDLMAKMKNM
notes: UBA5, human, residues 389-404 (holds the UBS); Never stood alone: it was fused to the C-terminus of UFC1 for the crystal structure; also called UBS; source: E. coli T7 express, purified, as part of the fusion UFC1-UBA5(389-404)
B5: in the assay with UFC1 (WT) [4], the binding result is “binds”.
